As usually defined, the Kd is a measure of binding affinity in units of concentration. Higher therefore signals a looser complex. For orientation: koff means the rate constant with which the complex falls apart. A higher koff goes with fast dissociation. As a reminder, the kon is a measure of how fast the partners come together.

This assay concerns the target Human IL13Rα2 (human, UniProt Q14627 27-380). Put plainly: SPR; Biacore T200; human IL13Rα1 (2,800 RU) or IL13Rα2 (3,100 RU) amine-coupled to CM5 chips in 10 mM sodium acetate pH 4.5; IL13-Fc proteins injected in twofold serial dilutions at constant flow (30 ml/min as printed); association 180 s, dissociation 600 s; regeneration 10 mM glycine pH 2.0; 1:1 fitting model. The conditions noted are these: both partners purified. A general note: SPR reads the build-up and loss of mass on a sensor chip optically.

Chain of Human IL13Rα2 (Q14627 27-380): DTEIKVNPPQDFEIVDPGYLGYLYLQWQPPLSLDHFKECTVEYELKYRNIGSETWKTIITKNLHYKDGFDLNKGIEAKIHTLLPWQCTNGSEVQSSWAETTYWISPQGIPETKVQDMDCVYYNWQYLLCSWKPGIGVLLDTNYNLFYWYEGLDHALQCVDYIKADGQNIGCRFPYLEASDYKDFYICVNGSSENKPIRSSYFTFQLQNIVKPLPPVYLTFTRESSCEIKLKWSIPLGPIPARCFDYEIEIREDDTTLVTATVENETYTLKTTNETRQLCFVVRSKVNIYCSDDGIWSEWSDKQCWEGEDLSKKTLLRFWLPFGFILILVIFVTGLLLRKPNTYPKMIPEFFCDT

B1: YYB-103 IL13 (modified IL13.E13K.R66D.S69D.R109K, antigen binding domain of YYB-103) fused with human Fc (Fc fusion)
chain: SPGPVPPSTALRKLIEELVNITQNQKAPLCNGSMVWSINLTAGMYCAALESLINVSGCSAIEKTQDMLDGFCPHKVSAGQFSSLHVRDTKIEVAQFVKDLLLHLKKLFKEGQFN
modifications: Fused to human Fc (carrier left out; probably dimeric through Fc). Numbering offset +32 is the only one that fits E13, R66, S69 and R109 together. / Amine-coupled to CM5 chip; extracellular domain …
For the molecule B1, the Kd was 7.4 nM, the koff was found to be 1.26e-05 s⁻¹ and the kon was found to be 1670 M⁻¹ s⁻¹.

The record behind these values is publication PMC8606595, “Chimeric Antigen Receptor T Cells With Modified Interleukin-13 Preferentially Recognize IL13Rα2 and Suppress Malignant Glioma: A Preclinical Study” (Frontiers in Immunology, 2021).
